Test results taken from EP2747783B1 (Ablynx N.V., dated 2017).
Residue numbers refer to the chain shown, from its start. Names may count otherwise. One block for each binder: values may come before it.

What was measured:
[1] = molecular target: T1, human c-Met, cell membrane expressed (A549, BxPC-3, myeloma cells) (human, UniProt P08581 25-1390); experiment: cell-based or functional assay
[2] = molecular target: T2, recombinant human c-Met/Fc chimera (R&D systems) (human); experiment: Alphascreen; competition with 100 pM biotinylated hHGF for c-MET/Fc
T2 construct: Bought protein; also called hc-Met/Fc; hu c-Met/Fc

[3] = molecular target: T1, human c-Met, cell membrane expressed …; experiment: cell-based or functional assay; remark: listed apart in the source
[4] = molecular target: T2, recombinant human c-Met/Fc chimera (R&D …); experiment: SPR (ProteOn); c-Met/Fc captured by anti-human IgG(Fc)
[5] = molecular target: T1, human c-Met, cell membrane expressed …; experiment: cell-based or functional assay; remark: listed apart in the source

T1 sequence (P08581 25-1390 limits assumed, form in doubt): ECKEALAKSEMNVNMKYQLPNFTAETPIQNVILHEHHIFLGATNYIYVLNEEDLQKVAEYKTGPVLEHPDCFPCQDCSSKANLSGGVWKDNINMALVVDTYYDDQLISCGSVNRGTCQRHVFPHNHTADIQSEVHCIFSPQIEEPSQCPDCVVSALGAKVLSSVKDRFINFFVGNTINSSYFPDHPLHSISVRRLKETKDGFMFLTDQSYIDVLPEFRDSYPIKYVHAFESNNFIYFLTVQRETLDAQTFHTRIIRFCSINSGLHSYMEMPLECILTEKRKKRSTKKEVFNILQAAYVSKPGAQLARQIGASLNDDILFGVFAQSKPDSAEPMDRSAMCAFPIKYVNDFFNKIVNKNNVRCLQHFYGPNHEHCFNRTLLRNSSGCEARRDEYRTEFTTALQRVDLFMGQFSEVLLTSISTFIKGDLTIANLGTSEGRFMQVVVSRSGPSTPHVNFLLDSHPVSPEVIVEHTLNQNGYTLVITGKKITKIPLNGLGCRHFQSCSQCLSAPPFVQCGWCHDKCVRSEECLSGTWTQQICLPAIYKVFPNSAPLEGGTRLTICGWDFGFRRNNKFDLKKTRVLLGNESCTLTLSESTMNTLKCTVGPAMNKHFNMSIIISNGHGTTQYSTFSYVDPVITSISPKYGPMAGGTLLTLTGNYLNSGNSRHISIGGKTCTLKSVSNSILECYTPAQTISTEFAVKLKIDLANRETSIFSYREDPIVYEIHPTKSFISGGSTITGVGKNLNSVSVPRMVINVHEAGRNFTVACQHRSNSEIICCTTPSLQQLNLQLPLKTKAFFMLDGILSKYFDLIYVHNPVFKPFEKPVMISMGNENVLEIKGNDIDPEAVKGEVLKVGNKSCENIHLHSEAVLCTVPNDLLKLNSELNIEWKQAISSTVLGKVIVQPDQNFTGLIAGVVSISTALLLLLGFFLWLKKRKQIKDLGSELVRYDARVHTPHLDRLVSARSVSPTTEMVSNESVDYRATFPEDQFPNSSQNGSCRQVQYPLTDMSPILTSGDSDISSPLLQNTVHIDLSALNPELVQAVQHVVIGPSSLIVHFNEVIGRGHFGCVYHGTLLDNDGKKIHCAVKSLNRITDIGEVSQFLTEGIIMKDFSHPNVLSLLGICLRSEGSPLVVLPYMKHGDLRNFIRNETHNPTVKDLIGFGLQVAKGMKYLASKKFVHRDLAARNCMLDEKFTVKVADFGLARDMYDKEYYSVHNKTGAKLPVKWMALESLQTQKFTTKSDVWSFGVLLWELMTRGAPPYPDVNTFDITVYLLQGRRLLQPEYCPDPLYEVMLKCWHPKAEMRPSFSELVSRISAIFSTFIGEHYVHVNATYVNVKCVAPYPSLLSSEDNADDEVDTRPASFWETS
T2 sequence (chain, as listed by the source mutant limits assumed): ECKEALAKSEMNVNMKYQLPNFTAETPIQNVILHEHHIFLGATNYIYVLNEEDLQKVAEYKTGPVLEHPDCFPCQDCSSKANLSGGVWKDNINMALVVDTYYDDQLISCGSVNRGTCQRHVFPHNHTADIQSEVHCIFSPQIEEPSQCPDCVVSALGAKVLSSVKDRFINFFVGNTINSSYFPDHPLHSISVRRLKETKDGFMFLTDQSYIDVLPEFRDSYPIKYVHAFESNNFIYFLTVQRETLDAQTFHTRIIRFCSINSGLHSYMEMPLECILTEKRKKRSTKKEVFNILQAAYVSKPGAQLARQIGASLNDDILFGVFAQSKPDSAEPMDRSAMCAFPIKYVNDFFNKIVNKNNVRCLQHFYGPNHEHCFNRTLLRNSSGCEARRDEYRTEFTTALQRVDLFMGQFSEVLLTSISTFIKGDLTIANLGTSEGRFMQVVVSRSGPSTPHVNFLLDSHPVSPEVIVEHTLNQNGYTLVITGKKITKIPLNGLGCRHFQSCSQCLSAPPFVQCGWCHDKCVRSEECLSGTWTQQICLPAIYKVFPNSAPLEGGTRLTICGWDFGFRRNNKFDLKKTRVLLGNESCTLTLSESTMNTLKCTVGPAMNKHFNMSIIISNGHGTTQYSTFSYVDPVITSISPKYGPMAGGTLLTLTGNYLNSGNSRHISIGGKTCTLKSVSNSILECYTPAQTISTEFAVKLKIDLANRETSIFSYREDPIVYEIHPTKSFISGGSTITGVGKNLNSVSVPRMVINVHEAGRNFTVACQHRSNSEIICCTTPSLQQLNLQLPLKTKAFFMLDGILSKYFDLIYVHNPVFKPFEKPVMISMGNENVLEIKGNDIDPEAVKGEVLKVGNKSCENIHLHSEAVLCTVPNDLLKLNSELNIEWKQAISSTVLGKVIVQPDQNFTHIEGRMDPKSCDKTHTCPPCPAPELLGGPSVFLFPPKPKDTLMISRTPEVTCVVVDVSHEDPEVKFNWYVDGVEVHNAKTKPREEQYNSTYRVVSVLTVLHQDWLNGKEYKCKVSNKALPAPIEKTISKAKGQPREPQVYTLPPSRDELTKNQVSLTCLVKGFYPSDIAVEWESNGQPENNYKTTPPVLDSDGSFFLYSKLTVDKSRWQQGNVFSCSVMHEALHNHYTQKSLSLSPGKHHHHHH

B1: A007901219 (A00790105-9GS-Alb23) (bispecific antibody)
chain: DVQLVESGGGLVQPGGSLRLSCAASGFILDYYAIGWFRQAPGKEREGVLCIDASDDITYYADSVKGRFTISRDNSKNTVYLQMNSLRPEDTAVYYCATPIGLSSSCLLEYDYDYWGQGTLVTVSSGGGGSGGGSEVQLLESGGGLVQPGGSLRLSCAASGFTFRSFGMSWVRQAPGKGPEWVSSISGSGSDTLYADSVKGRFTISRDNSKNTLYLQMNSLRPEDTAVYYCTIGGSLSRSSQGTLVTVSS
notes: also called A007901219 (Alb23)
- IC50, cMET phosphorylation assay, + HSA [1]: 4.2 nM
- IC50, cMET phosphorylation assay, - HSA [1]: 5.41 nM
- fold improved potency as compared to 5D5 Fab v2 [2]: > 5 fold

B2: 04E09(C22A/C92S) (SEQ ID NO: 25) tagged with 3xFlag-His6 (VHH)
VHH: EVQLVESGGGLVQPGGSLRLSAAASGFILDYYAIGWFRQAPGKEREGVLCIDASDDITYYADSVKGRFTISRDNAKNTVYLQMNSLKPEDTGVYYSATPIGLSSSCLLEYDYDYWGQGTLVTVSSGAADYKDHDGDYKDHDIDYKDDDDKGAAHHHHHH
- IC50, HGF-dependent c-Met phosphorylation [3]: 3.8 nM

B3: 04E09(C50S/C100bG) (SEQ ID NO: 24) tagged with 3xFlag-His6 (VHH)
VHH: EVQLVESGGGLVQPGGSLRLSCAASGFILDYYAIGWFRQAPGKEREGVLSIDASDDITYYADSVKGRFTISRDNAKNTVYLQMNSLKPEDTGVYYCATPIGLSSSGLLEYDYDYWGQGTLVTVSS
- fold lower on-rate and off-rates against 04E09-9GS-Alb11 and 04E09 (C22A/C92S) [4]: 10 fold

B4: 04E09(L49S) (SEQ ID NO: 23) tagged with 3xFlag-His6 (VHH)
VHH: B3 VHH with L49S, S50C, G106C
- IC50, HGF-dependent c-Met phosphorylation [3]: 3.1 nM

B5: A007900184 (33H10-3xFLAG-His6) (VHH)
VHH: EVQLVESGGGLVQAGGSLRLSCAASGFTFDDYAIGWFRQAPGEEREGVSSISSTYGLTYYADSVKGRFTISSSNAKNTVYLQMNNLKPEDTAVYYCAATPIERLGLDAYEYDYWGQGTLVTVSS
- IC50, c-Met phosphorylation [5]: 79 nM

B13: A007901246 (VHH)
VHH: B5 VHH with A14P, T28A, S73D, A75S, N85S, K87R, E102G, R103L, L104I
- IC50, Proliferation assay, plate 1 [5]: 1.88 nM
- IC50, c-Met phosphorylation [5]: 3.44 nM

B14: A007901245 (VHH)
VHH: B5 VHH with A14P, S73D, A75S, N85S, K87R, E102G, R103L, L104I
- IC50, Proliferation assay, plate 1 [5]: 3.69 nM
- IC50, c-Met phosphorylation [5]: 5.41 nM

Further lines, results first:

- IC50, Proliferation assay, plate 2 [5]: 1.93 nM
- IC50, c-Met phosphorylation [5]: 2.81 nM
B6: A007901249 (VHH)
VHH: B5 VHH with A14P, E46L, S73D, A75S, N85S, K87R, E102G, R103L, L104I

- IC50, c-Met phosphorylation [5]: 11.5 nM
B7: A007901248 (VHH)
VHH: B5 VHH with A14P, T28A, E43K, S73D, A75S, N85S, K87R, E102G, R103L, L104I

- IC50, c-Met phosphorylation [5]: 4.98 nM
B8: A007901251 (VHH)
VHH: B5 VHH with A14P, E43K, E46L, S73D, A75S, N85S, K87R, E102G, R103L, L104I

- IC50, c-Met phosphorylation [5]: 12.8 nM
B9: A007901247 (VHH)
VHH: B5 VHH with A14P, E43K, S73D, A75S, N85S, K87R, E102G, R103L, L104I

- IC50, c-Met phosphorylation [5]: 4.16 nM
B10: A007901252 (VHH)
VHH: EVQLVESGGGLVQPGGSLRLSCAASGFAFDDYAIGWFRQAPGKERLGVSSISSTYGLTYYADSVKGRFTISSDNSKNTVYLQMNSLRPEDTAVYYCAATPIGLIGLDAYEYDYWGQGTLVTVSS

- IC50, Proliferation assay, plate 1 [5]: 2.29 nM
- IC50, Proliferation assay, plate 2 [5]: 1.32 nM
- IC50, c-Met phosphorylation [5]: 2.34 nM
B11: A007901250 (VHH)
VHH: B10 VHH with K43E

- IC50, c-Met phosphorylation [5]: 4.84 nM
B12: A007901253 (VHH)
VHH: B10 VHH with A28T, K43E, L46E, S63P
